The target of experiment [1] is T1, gp41-5 (HIV).
T1 construct: also called gp41-5 protein construct; five-helix bundle protein
In words: competition FP; displacement of Flu-C38 from gp41-5.

The target in experiment [2] is T1, gp41-5. Described as above. The source holds these as a separate data set.
Description: Competition fluorescence polarization assays were conducted in black 96-well plates. […] A second stock plate was prepared containing serial dilutions of peptide inhibitors in DMSO. The peptide stock solutions were transferred to the assay plate (1 μL per well). […] All experimental conditions were carried out in duplicate, and each peptide was assayed in 2-3 independent experiments. Data analysis was carried out in GraphPad Prism. Raw mP data from each experiment were fit to a sigmoidal dose response and normalized to the resulting parameters for the top and bottom of the curve. All experiments included at least one compound showing complete inhibition at the highest concentrations tested. Normalized data from multiple independent runs of the each oligomer were combined and globally fit to an exact analytical expressions for FP competitive binding with Kᵢ as the only floating parameter.

Like-named read-outs stand apart in the source and are kept apart here. [ ]: non-standard residue; d: D form. APC = trans-3-aminopyrrolidine-4-carboxylic acid; ACPC = trans-2-aminocyclopentanecarboxylic acid; β3hT = C[C@@H](O)[C@H](N)CC(=O)O; β3hE = N[C@@H](CCC(=O)O)CC(=O)O

For Ac-TTWEAWD[APC]AIA[β3hE]YA[ACPC]RIE[ACPC]LI[APC]AAQ[β3hE]QQ[β3hE]KNE[ACPC]AL[APC]EL-NH2 (not fully specified, also called compound 12; peptide 12) [chimeric α+α/β foldamer 12], the Ki in the experiment with gp41-5 [1] is 8 nM.

B1: chimeric CHR α/β-peptide 8 (peptide)
peptide: Ac-TTWEAWDRAIAEYA[ACPC]RIE[ACPC]LI[APC]AAQ[β3hE]QQ[β3hE]KNE[ACPC]AL[APC]EL-NH2
modifications: not fully specified
notes: Made from 7 by replacing two β3-hArg residues with APC
As to B1, affinity with gp41-5 [2] was put at a Ki of 0.3 nM.

B2: chimeric α+α/β foldamer 13 (peptide)
peptide: Ac-TTWEAWDRAIA[β3hE]YA[ACPC]RIE[ACPC]LI[APC]AAQ[β3hE]QQ[β3hE]KNE[ACPC]AL[APC]EL-NH2
modifications: not fully specified
notes: the difference must lie in β3-residues whose bold type is lost; also called compound 13; peptide 13
In the experiment with gp41-5 [1], B2 came in with a Ki of 0.8 nM. In other words, the sub-nanomolar range. Molecule Ac-[β3hT]TWE[ACPC]WD[APC]AIA[β3hE]YAARIEALIRAAQ[β3hE]QQ[β3hE]KNE[ACPC]AL[APC]EL-NH2 (not fully specified, also called compound 14) [chimeric α+α/β foldamer 14] gave an inhibition constant Ki with gp41-5 [1] of 1.4 nM. Still for that read-out and setting: with Ac-[β3hT]TWE[ACPC]WD[APC]AIA[β3hE]YA[ACPC]RIE[ACPC]LI[APC]AAQEQQEKNEAALREL-NH2 (not fully specified, also called compound 15) [chimeric α+α/β foldamer 15] the figure was 0.2 nM.

What is called Ki is the dissociation constant of the complex between target and ligand, obtained from inhibition or displacement.

For the origin of these results see US20130177981A1 (WISCONSIN ALUMNI RESEARCH FOUNDATION, published 2013).
